Bridge positions count the residues as written; N and C are the ends. Square brackets hold non-standard residues; d marks the D form. Ends that are not written are not given here. Pro(4-spirocPr) = O=C(O)[C@@H]1CC2(CC2)CN1; PEG8 = NCCOCCOCCOCCOCCOCCOCCOCCOCCC(=O)O; NMeI = CC[C@H](C)[C@H](NC)C(=O)O; tBuAla = CC(C)(C)C[C@H](N)C(=O)O; Pen = CC(C)(S)[C@H](N)C(=O)O; NMeC = CN[C@@H](CS)C(=O)O; Orn = NCCC[C@H](N)C(=O)O; Abu = CC[C@H](N)C(=O)O; Sar = CNCC(=O)O
T1: recombinant rat MASP1 active protease (amino acids 302-704, C-terminal His Tag) (rat, UniProt Q8CHN8 302-704)
T1 sequence: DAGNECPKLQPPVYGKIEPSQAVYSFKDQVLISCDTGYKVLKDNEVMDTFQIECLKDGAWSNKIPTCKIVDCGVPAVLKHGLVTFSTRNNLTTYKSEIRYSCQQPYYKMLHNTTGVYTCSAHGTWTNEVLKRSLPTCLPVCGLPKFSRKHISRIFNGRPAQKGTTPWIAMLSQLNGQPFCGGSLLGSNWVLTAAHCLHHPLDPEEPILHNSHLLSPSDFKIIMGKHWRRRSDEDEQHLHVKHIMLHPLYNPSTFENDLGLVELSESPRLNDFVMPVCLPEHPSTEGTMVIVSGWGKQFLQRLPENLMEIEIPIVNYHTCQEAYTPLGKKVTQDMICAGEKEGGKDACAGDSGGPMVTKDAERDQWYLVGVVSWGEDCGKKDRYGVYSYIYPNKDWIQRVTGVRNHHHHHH

B1: Example 79: KIC+SRS-((tBu)A)-PPI-((N-Me)C)+I-NH2 (peptide)
peptide: KICSRS[tBuAla]PPI[NMeC]I-NH2
modifications: disulfide 3-11; N-terminus assumed
SMILES: CC[C@H](C)[C@H](NC(=O)[C@@H]1CSSC[C@H](NC(=O)[C@@H](NC(=O)[C@@H](N)CCCCN)[C@@H](C)CC)C(=O)N[C@@H](CO)C(=O)N[C@@H](CCCNC(=N)N)C(=O)N[C@@H](CO)C(=O)N[C@@H](CC(C)(C)C)C(=O)N2CCC[C@H]2C(=O)N2CCC[C@H]2C(=O)N[C@@H]([C@@H](C)CC)C(=O)N1C)C(N)=O
B2: Example 48: AIC+SRS-((tBu)A)-PPI-((N-Me)C)+IPD-NH2 (peptide)
peptide: AICSRS[tBuAla]PPI[NMeC]IPD-NH2
modifications: disulfide 3-11; N-terminus assumed
SMILES: CC[C@H](C)[C@H](NC(=O)[C@H](C)N)C(=O)N[C@H]1CSSC[C@@H](C(=O)N[C@H](C(=O)N2CCC[C@H]2C(=O)N[C@@H](CC(=O)O)C(N)=O)[C@@H](C)CC)N(C)C(=O)[C@H]([C@@H](C)CC)NC(=O)[C@@H]2CCCN2C(=O)[C@@H]2CCCN2C(=O)[C@H](CC(C)(C)C)NC(=O)[C@H](CO)NC(=O)[C@H](CCCNC(=N)N)NC(=O)[C@H](CO)NC1=O
B3: Example 77: (Orn)-IC+SRS-((tBu)A)-PPI-((N-Me)C)+IPD-NH2 (peptide)
peptide: [Orn]ICSRS[tBuAla]PPI[NMeC]IPD-NH2
modifications: disulfide 3-11; N-terminus assumed
SMILES: CC[C@H](C)[C@H](NC(=O)[C@@H](N)CCCN)C(=O)N[C@H]1CSSC[C@@H](C(=O)N[C@H](C(=O)N2CCC[C@H]2C(=O)N[C@@H](CC(=O)O)C(N)=O)[C@@H](C)CC)N(C)C(=O)[C@H]([C@@H](C)CC)NC(=O)[C@@H]2CCCN2C(=O)[C@@H]2CCCN2C(=O)[C@H](CC(C)(C)C)NC(=O)[C@H](CO)NC(=O)[C@H](CCCNC(=N)N)NC(=O)[C@H](CO)NC1=O
B4: Example 37: AIC+SRS-((tBu)A)-PPIC+I-NH2 (peptide)
peptide: AICSRS[tBuAla]PPICI-NH2
modifications: disulfide 3-11; N-terminus assumed
SMILES: CC[C@H](C)[C@H](NC(=O)[C@@H]1CSSC[C@H](NC(=O)[C@@H](NC(=O)[C@H](C)N)[C@@H](C)CC)C(=O)N[C@@H](CO)C(=O)N[C@@H](CCCNC(=N)N)C(=O)N[C@@H](CO)C(=O)N[C@@H](CC(C)(C)C)C(=O)N2CCC[C@H]2C(=O)N2CCC[C@H]2C(=O)N[C@@H]([C@@H](C)CC)C(=O)N1)C(N)=O
B5: Example 49: (Orn)-IC+SRS-((tBu)A)-PPI-(Pen)+IPD-NH2 (peptide)
peptide: [Orn]ICSRS[tBuAla]PPI[Pen]IPD-NH2
modifications: disulfide 3-11; N-terminus assumed
SMILES: CC[C@H](C)[C@H](NC(=O)[C@@H](N)CCCN)C(=O)N[C@H]1CSSC(C)(C)[C@@H](C(=O)N[C@H](C(=O)N2CCC[C@H]2C(=O)N[C@@H](CC(=O)O)C(N)=O)[C@@H](C)CC)NC(=O)[C@H]([C@@H](C)CC)NC(=O)[C@@H]2CCCN2C(=O)[C@@H]2CCCN2C(=O)[C@H](CC(C)(C)C)NC(=O)[C@H](CO)NC(=O)[C@H](CCCNC(=N)N)NC(=O)[C@H](CO)NC1=O
B6: Example 35: KIC+SRS-((tBu)A)-PPI-((N-Me)C)+IPD-NH2 (peptide)
peptide: KICSRS[tBuAla]PPI[NMeC]IPD-NH2
modifications: disulfide 3-11; N-terminus assumed
SMILES: CC[C@H](C)[C@H](NC(=O)[C@@H](N)CCCCN)C(=O)N[C@H]1CSSC[C@@H](C(=O)N[C@H](C(=O)N2CCC[C@H]2C(=O)N[C@@H](CC(=O)O)C(N)=O)[C@@H](C)CC)N(C)C(=O)[C@H]([C@@H](C)CC)NC(=O)[C@@H]2CCCN2C(=O)[C@@H]2CCCN2C(=O)[C@H](CC(C)(C)C)NC(=O)[C@H](CO)NC(=O)[C@H](CCCNC(=N)N)NC(=O)[C@H](CO)NC1=O
B7: Example 45: AIC+SRS-((tBu)A)-P-((6S)-5-Azaspiro[2.4]heptane-6-carboxylic acid)-I-(Pen)+IPD-NH2 (peptide)
peptide: AICSRS[tBuAla]P[Pro(4-spirocPr)]I[Pen]IPD-NH2
modifications: disulfide 3-11; N-terminus assumed
SMILES: CC[C@H](C)[C@H](NC(=O)[C@H](C)N)C(=O)N[C@H]1CSSC(C)(C)[C@@H](C(=O)N[C@H](C(=O)N2CCC[C@H]2C(=O)N[C@@H](CC(=O)O)C(N)=O)[C@@H](C)CC)NC(=O)[C@H]([C@@H](C)CC)NC(=O)[C@@H]2CC3(CC3)CN2C(=O)[C@@H]2CCCN2C(=O)[C@H](CC(C)(C)C)NC(=O)[C@H](CO)NC(=O)[C@H](CCCNC(=N)N)NC(=O)[C@H](CO)NC1=O
B8: Example 31: AIC+SRS-((tBu)A)-P-((6S)-5-Azaspiro[2.4]heptane-6-carboxylic acid)-I-(Pen)+IPD-OH (peptide)
peptide: AICSRS[tBuAla]P[Pro(4-spirocPr)]I[Pen]IPD-OH
modifications: disulfide 3-11; N-terminus assumed
SMILES: CC[C@H](C)[C@H](NC(=O)[C@H](C)N)C(=O)N[C@H]1CSSC(C)(C)[C@@H](C(=O)N[C@H](C(=O)N2CCC[C@H]2C(=O)N[C@@H](CC(=O)O)C(=O)O)[C@@H](C)CC)NC(=O)[C@H]([C@@H](C)CC)NC(=O)[C@@H]2CC3(CC3)CN2C(=O)[C@@H]2CCCN2C(=O)[C@H](CC(C)(C)C)NC(=O)[C@H](CO)NC(=O)[C@H](CCCNC(=N)N)NC(=O)[C@H](CO)NC1=O
B9: Example 66: (Abu)-IC+SRS-((tBu)A)-PPIC+IPD-NH2 (peptide)
peptide: [Abu]ICSRS[tBuAla]PPICIPD-NH2
modifications: disulfide 3-11; N-terminus assumed
SMILES: CC[C@H](N)C(=O)N[C@H](C(=O)N[C@H]1CSSC[C@@H](C(=O)N[C@H](C(=O)N2CCC[C@H]2C(=O)N[C@@H](CC(=O)O)C(N)=O)[C@@H](C)CC)NC(=O)[C@H]([C@@H](C)CC)NC(=O)[C@@H]2CCCN2C(=O)[C@@H]2CCCN2C(=O)[C@H](CC(C)(C)C)NC(=O)[C@H](CO)NC(=O)[C@H](CCCNC(=N)N)NC(=O)[C@H](CO)NC1=O)[C@@H](C)CC
B10: Example 65: LIC+SRS-((tBu)A)-PPI-((N-Me)C)+I-NH2 (peptide)
peptide: LICSRS[tBuAla]PPI[NMeC]I-NH2
modifications: disulfide 3-11; N-terminus assumed
SMILES: CC[C@H](C)[C@H](NC(=O)[C@@H]1CSSC[C@H](NC(=O)[C@@H](NC(=O)[C@@H](N)CC(C)C)[C@@H](C)CC)C(=O)N[C@@H](CO)C(=O)N[C@@H](CCCNC(=N)N)C(=O)N[C@@H](CO)C(=O)N[C@@H](CC(C)(C)C)C(=O)N2CCC[C@H]2C(=O)N2CCC[C@H]2C(=O)N[C@@H]([C@@H](C)CC)C(=O)N1C)C(N)=O
B11: Example 59: Ac-G-((N-Me)I)-C+SRSLPPIC+IPD-OH (peptide)
peptide: Ac-G[NMeI]CSRSLPPICIPD-OH
modifications: disulfide 3-11
SMILES: CC[C@H](C)[C@@H]1NC(=O)[C@@H]2CCCN2C(=O)[C@@H]2CCCN2C(=O)[C@H](CC(C)C)NC(=O)[C@H](CO)NC(=O)[C@H](CCCNC(=N)N)NC(=O)[C@H](CO)NC(=O)[C@@H](NC(=O)[C@H]([C@@H](C)CC)N(C)C(=O)CNC(C)=O)CSSC[C@@H](C(=O)N[C@H](C(=O)N2CCC[C@H]2C(=O)N[C@@H](CC(=O)O)C(=O)O)[C@@H](C)CC)NC1=O
B12: Example 38: RIC+SRS-((tBu)A)-PPI-((N-Me)C)+I-NH2 (peptide)
peptide: RICSRS[tBuAla]PPI[NMeC]I-NH2
modifications: disulfide 3-11; N-terminus assumed
SMILES: CC[C@H](C)[C@H](NC(=O)[C@@H]1CSSC[C@H](NC(=O)[C@@H](NC(=O)[C@@H](N)CCCNC(=N)N)[C@@H](C)CC)C(=O)N[C@@H](CO)C(=O)N[C@@H](CCCNC(=N)N)C(=O)N[C@@H](CO)C(=O)N[C@@H](CC(C)(C)C)C(=O)N2CCC[C@H]2C(=O)N2CCC[C@H]2C(=O)N[C@@H]([C@@H](C)CC)C(=O)N1C)C(N)=O
B13: Example 36: AIC+SRSLP-((6S)-5-Azaspiro[2.4]heptane-6-carboxylic acid)-I-(Pen)+IPD-OH (peptide)
peptide: AICSRSLP[Pro(4-spirocPr)]I[Pen]IPD-OH
modifications: disulfide 3-11; N-terminus assumed
SMILES: CC[C@H](C)[C@H](NC(=O)[C@H](C)N)C(=O)N[C@H]1CSSC(C)(C)[C@@H](C(=O)N[C@H](C(=O)N2CCC[C@H]2C(=O)N[C@@H](CC(=O)O)C(=O)O)[C@@H](C)CC)NC(=O)[C@H]([C@@H](C)CC)NC(=O)[C@@H]2CC3(CC3)CN2C(=O)[C@@H]2CCCN2C(=O)[C@H](CC(C)C)NC(=O)[C@H](CO)NC(=O)[C@H](CCCNC(=N)N)NC(=O)[C@H](CO)NC1=O
B14: Example 86: AIC+SRS-((tBu)A)-PPI-((N-Me)C)+IPD-OH (peptide)
peptide: AICSRS[tBuAla]PPI[NMeC]IPD-OH
modifications: disulfide 3-11; N-terminus assumed
SMILES: CC[C@H](C)[C@H](NC(=O)[C@H](C)N)C(=O)N[C@H]1CSSC[C@@H](C(=O)N[C@H](C(=O)N2CCC[C@H]2C(=O)N[C@@H](CC(=O)O)C(=O)O)[C@@H](C)CC)N(C)C(=O)[C@H]([C@@H](C)CC)NC(=O)[C@@H]2CCCN2C(=O)[C@@H]2CCCN2C(=O)[C@H](CC(C)(C)C)NC(=O)[C@H](CO)NC(=O)[C@H](CCCNC(=N)N)NC(=O)[C@H](CO)NC1=O

target: T1, recombinant rat MASP1 active protease …; experiment: cell-based or functional assay

Binder	rat MASP1 IC50 [nM]
B1	85
B2	51.5
B3	66
B4	140
[Orn]ICSRS[tBuAla]PPI[NMeC]IPD-NH2 (disulfide 3-11; also: HCl salt) [Example 78: (Orn)-IC+SRS-((tBu)A)-PPI-((N-Me)C)+IPD-NH2 (HCl salt)]	48
B5	60
B6	46
B7	40
B8	22
B9	70
B10	7.2
[Sar]ICSRS[tBuAla]PPI[Pen]IP-{PEG4‑CH2CO2H (15 atoms)-NH2} (disulfide 3-11) [Example 73: ((N-Me)G)-IC+SRS-((tBu)A)-PPI-(Pen)+IP-(PEG4-CH2CO2H (15 atoms))-NH2]	43
B11	250
[Sar]ICSRS[tBuAla]PPI[Pen]IP-{PEG8-NH2} (disulfide 3-11) [Example 74: ((N-Me)G)-IC+SRS-((tBu)A)-PPI-(Pen)+IP-(PEG8(28 atoms))-NH2]	71
B12	12
B13	24
B14	16
